In patent US20210047432A1 (DIACCURATE, published 2021):
Values belong to the binder of their own block, whether it stands above or below them.

Experiments:
[1] = target: T1, recombinant human sPLA2-GIB (mature secreted group IB pancreatic phospholipase A2) (human, UniProt P04054 23-148); experiment: cell-based or functional assay
[2] = target: T1, recombinant human sPLA2-GIB (mature …); experiment: SPR (BIAcore 2000), antibody captured on anti-mouse IgG surface, antigen in solution
Experimental: (§1) The affinity constants (KD) of the pro-sPLA2-IB and sPLA2-IB binding to the #14G9 antibody were determined by surface kinetics on a real-time biosensor surface plasmon resonance assay (BIAcore™). More specifically, the affinity of the antibodies for human pro-sPLA2-IB and sPLA2-IB was measured using a BIAcore® 2000. The antibody was captured on an anti-mouse IgG surface and exposed to various concentrations of recombinant pro-sPLA2-IB and sPLA2-IB protein. Kinetic analysis using BIAevaluation™ software was performed to obtain the association and dissociation rate constants.

[3] = target: T2, recombinant human pro-sPLA2-GIB (human, UniProt P04054 16-148); experiment: as above
T2 construct: also called pro-sPLA2-IB; proPLA2-GIB
T2 sequence (P04054 16-148): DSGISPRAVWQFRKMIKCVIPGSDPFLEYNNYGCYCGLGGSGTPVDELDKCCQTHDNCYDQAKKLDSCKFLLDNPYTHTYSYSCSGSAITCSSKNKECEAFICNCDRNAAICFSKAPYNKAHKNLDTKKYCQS
Experimental: as §1

[4] = target: T1, recombinant human sPLA2-GIB (mature …); experiment: competitive ELISA: constant antibody premixed with dilutions of soluble antigen, free antibody caught on antigen-coated plate
Experimental: (§2) Binding affinities of the antibodies to pro-sPLA2-IB and sPLA2-IB were measured by plate-based competition immunoassay. For the competition ELISA, briefly, constant amounts of antibody at different levels were premixed with serial dilutions of antigen protein, human sPLA2-IB or pro-sPLA2-IB, ranging from 0 to 10 µg/ml, and incubated for two hours at room temperature to reach pseudo-binding equilibrium between the antibody and antigen. These solutions were then transferred to 96-well sPLA2-IB or pro-sPLA2-IB pre-coated plates to allow the free-antibody in the mixtures to bind to plate-coated sPLA2-IB or pro-sPLA2-IB. The plates were typically coated with 30 to 100 ng of human sPLA2-IB or pro-sPLA2-IB protein in PBS solution overnight at 4° C. followed by BSA nonspecific blocking. After washing off excess antibody in solution, plate-bound antibodies were detected with an HRP-conjugated goat anti-mouse IgG or IgA polyclonal antibody reagent and developed using colorimetric substrate. The dependency of the signals on the concentrations of antigen in solution was analyzed with a 4-parameter fit analysis using Prism™ software (Graph Pad) and reported as IC50.

[5] = target: T2, recombinant human pro-sPLA2-GIB; experiment: as above
Experimental: as §2

[6] = target: T1, recombinant human sPLA2-GIB (mature …); experiment: indirect ELISA: antigen coated on the plate, #14G9 mAb titrated (x axis mAb, Log M, -9.5 to -6.5), OD450 nm readout
Experimental: (§3) Microplate wells were typically coated with 100 ng of recombinant human sPLA2-X, sPLA2-IB or pro-sPLA2-IB in PBS pH 7.5, overnight at 4° C. Sample wells were washed three times with PBS containing 0.05% Tween 20. After final washing, sample wells were treated with blocking solution containing 1% bovine serum albumin (BSA) in PBS buffer for 60 min at room temperature. Following washing with PBS containing 0.05% Tween 20, increasing amounts (10 ng/mL up to 3 μg/mL) of #14G9 mAb were added to antigen-coated wells. and incubated for 120 min at room temperature. Following washing with PBS containing 0.05% Tween 20, the binding of #14G9 mAb was detected with an HRP-conjugated goat anti-mouse IgG or IgA polyclonal antibody reagent and developed using colorimetric substrate. The dependency of the signals on the concentrations of antigen in solution was analyzed with a 4-parameter fit analysis using Prism™ software (Graph Pad) and reported as EC50.

[7] = target: T2, recombinant human pro-sPLA2-GIB; experiment: indirect ELISA: antigen coated on the plate, #14G9 mAb titrated (x axis mAb, Log M, -9.5 to -6.5), OD450 nm readout; the curve reaches only OD450 about 1.6 at the highest concentration, no upper plateau
Experimental: as §3

[8] = target: T3, immune complex of #2B with sPLA2-GIB (human, UniProt P04054 23-148); experiment: flow cytometry, antibody-antigen immune complex on CHO cells expressing the receptor
T3 construct: also called immune complexe of #2B; antibody-antigen immune complex
T3 sequence (heavy, as listed by the source, chain 1 of 3): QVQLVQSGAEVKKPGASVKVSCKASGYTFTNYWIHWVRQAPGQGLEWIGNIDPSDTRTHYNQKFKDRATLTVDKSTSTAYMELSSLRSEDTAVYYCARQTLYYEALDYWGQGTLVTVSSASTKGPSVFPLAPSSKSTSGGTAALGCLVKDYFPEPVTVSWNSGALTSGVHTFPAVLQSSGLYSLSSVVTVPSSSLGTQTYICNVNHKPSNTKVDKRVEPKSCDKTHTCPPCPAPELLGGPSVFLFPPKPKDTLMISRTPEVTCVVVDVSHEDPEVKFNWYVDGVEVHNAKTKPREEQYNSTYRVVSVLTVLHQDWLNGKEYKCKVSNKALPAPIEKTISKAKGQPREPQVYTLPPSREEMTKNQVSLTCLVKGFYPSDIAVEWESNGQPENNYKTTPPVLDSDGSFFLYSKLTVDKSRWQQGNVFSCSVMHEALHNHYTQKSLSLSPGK
T3 sequence (light, as listed by the source, chain 2 of 3): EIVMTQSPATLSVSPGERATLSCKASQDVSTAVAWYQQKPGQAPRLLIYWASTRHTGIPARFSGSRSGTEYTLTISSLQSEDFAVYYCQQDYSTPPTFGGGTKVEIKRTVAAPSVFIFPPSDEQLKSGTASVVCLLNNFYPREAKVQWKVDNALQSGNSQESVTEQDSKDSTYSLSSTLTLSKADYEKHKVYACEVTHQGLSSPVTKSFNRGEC
T3 sequence (P04054 23-148, chain 3 of 3): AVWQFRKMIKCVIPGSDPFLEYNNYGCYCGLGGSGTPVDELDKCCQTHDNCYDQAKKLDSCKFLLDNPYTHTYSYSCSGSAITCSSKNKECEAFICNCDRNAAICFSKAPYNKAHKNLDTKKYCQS
Experimental: (§4) Antibody-antigen immune complex were generated by co-incubation of 10 µg/ml of humanized antibodies and 5 μg/ml of sPLA2-GIB for 30 min at 37° C. Immune complexes were then incubated with 1×10⁵ CHO cells stably expressing human FcγRs for 30 min on ice. The cells were then washed, detached, fixed, and analyzed by flow cytometry (FACSCalibur; BD Biosciences).
(§5) The binding of monomeric #2B, #2B1 and #2B2 to human FcγRs was tested by flow cytometry by incubating the mAbs with CHO cells stably expressing human FcγRI, FcγRIIA (H131), FcγRIIA(R131), FcγRIIB, FcγRIIIA(F176), FcγRIIIA(V176), FcγRIIIB(NA1), FcγRIIIB(NA2), and FcγRIIIB(SH), (REF P. Bruhns). As presented in FIG. 9, #2B is binding to hFcγRI and hFcγRIIIA(V176) only, whereas no monomeric binding of #2B1 and #2B2 to all tested hFcγRs was observed. Antibody-antigen immune complex was tested by first incubating the mAb with the antigen and then, incubating the immune complexes formed with CHO cells stably expressing human FcγRs. The immune complexe of #2B is binding to all tested hFcγRs, except hFcγRIIB (FIG. 10). Weak binding is observed for immune complex of #2B1 to hFcγRIIIA(V176) (data not shown), whereas no immune complex binding of #2B2 to any tested hFcγRs (data not shown).

[9] = target: immune complex of #2B2 with sPLA2-GIB (human, UniProt P04054 23-148); experiment: as above
Sequence of immune complex of #2B2 with sPLA2-GIB (heavy, as listed by the source, chain 1 of 3): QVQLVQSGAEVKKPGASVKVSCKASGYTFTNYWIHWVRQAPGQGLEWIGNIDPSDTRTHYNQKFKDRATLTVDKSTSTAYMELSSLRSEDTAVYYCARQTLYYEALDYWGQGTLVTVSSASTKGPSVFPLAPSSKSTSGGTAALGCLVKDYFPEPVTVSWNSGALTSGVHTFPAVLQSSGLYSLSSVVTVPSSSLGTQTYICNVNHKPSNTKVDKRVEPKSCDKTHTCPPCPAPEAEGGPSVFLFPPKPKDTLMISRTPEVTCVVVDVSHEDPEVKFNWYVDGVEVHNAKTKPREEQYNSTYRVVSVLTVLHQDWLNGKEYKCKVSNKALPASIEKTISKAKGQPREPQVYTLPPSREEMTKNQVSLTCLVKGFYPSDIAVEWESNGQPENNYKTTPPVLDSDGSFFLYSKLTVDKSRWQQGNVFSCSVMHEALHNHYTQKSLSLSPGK
Sequence of immune complex of #2B2 with sPLA2-GIB (light, as listed by the source, chain 2 of 3): as the sequence (light, as listed by the source, chain 2 of 3) above
Sequence of immune complex of #2B2 with sPLA2-GIB (P04054 23-148, chain 3 of 3): as the sequence (P04054 23-148, chain 3 of 3) above
Experimental: as §4, §5

T1 sequence (P04054 23-148): as the sequence (P04054 23-148, chain 3 of 3) above

EC50 for the restoration of the sPLA2-IB effect on IL-7 induced phosphoSTAT5 nuclear translocation in human CD4 T cells (75 nM sPLA2-GIB) [1]: 2.2 ng/mL
inhibition of sPLA2-IB enzymatic activity, EC50 [1]: 2.3 nM
Kd [2]: 0.34 nM
Kd [3]: 174 nM
IC50 [4]: 1 nM
IC50 [5]: 109 nM
EC50 [6]: 6 nM
EC50 [7]: 158 nM
B1: #14G9 mAb (mouse anti-sPLA2-GIB monoclonal antibody) (antibody, V domains shown)
VH: QVQLQQPGAELVKPGASVKLSCKASGYTFTNYWIHWVKRRPGQGLEWIGNIDPSDTRTHYNQKFKDKATLAVDKSSSTAYMQLSSLTSEDSAVFYCARQTLYYEALDYWGQGTTLTVSS
VL: DIVMTQSHKLMSTSVGDRVSITCKASQDVSTAVAWYQEKPGQSPKLLIYWASTRHTGVPNRFTGSRSGTDYTLTISSVQAEDLALYYCQQDYSTPPTFGAGTKLELKR
notes: Mouse hybridoma antibody; also called monoclonal antibody 14G9

binding result [8]: no binding
binding result [9]: no binding
B2: human FcγRIIB (receptor, UniProt P31994 43-310, looked up)
chain: TPAAPPKAVLKLEPQWINVLQEDSVTLTCRGTHSPESDSIQWFHNGNLIPTHTQPSYRFKANNNDSGEYTCQTGQTSLSDPVHLTVLSEWLVLQTPHLEFQEGETIVLRCHSWKDKPLVKVTFFQNGKSKKFSRSDPNFSIPQANHSHSGDYHCTGNIGYTLYSSKPVTITVQAPSSSPMGIIVAVVTGIAVAAIVAAVVALIYCRKKRISALPGYPECREMGETLPEKPANPTNPDEADKVGAENTITYSLLMHPDALEEPDDQNRI
notes: whole, on cells; also called hFcγRIIB
